Source: patent US20230270857A1

Molecular target: CD3 on ex vivo expanded human T cells (Homo sapiens) (UniProt P07766)
Assay: flow cytometry referenced to quantum beads

molar amount of BsAb bound per T cell (zeptomoles per T cell)	Substance
1 to 35	GD2-BsAb (hu3F8-BsAb, anti-GD2 hu3F8 x anti-CD3 huOKT3, IgG-[L]-scFv format) (bispecific antibody)
1 to 35	HER2-BsAb (trastuzumab x huOKT3, IgG-[L]-scFv format) (bispecific antibody)
